Measurements as given in publication PMC9068813, “Enhancer RNAs stimulate Pol II pause release by harnessing multivalent interactions to NELF”.

Key:
Settings in all cases: protein: recombinant; tags: His-tag (Ni-NTA purified); copies: 1;1;1;1
NELF complex WT [1] = target: T1, NELF complex WT (UniProt Q9H3P2;Q8WX92;Q8IXH7;P18615 1-528;1-628;1-590;1-380); assay: EMSA (NELF release from PEC); apparent Kd; NELF in PEC on N1; 20 mM Na-HEPES pH 7.4, 100 mM NaCl, 25 mM KCl, 3 mM MgCl2, 2 mM DTT; assembly 30 °C, eRNA incubation 15-20 min at room temperature; 3.5% native PAGE 0.5x TBE at 4 °C; PEC about 0.1 µM NELF 0.15 µM
T1 sequence (Q9H3P2 whole entry, chain 1 of 4): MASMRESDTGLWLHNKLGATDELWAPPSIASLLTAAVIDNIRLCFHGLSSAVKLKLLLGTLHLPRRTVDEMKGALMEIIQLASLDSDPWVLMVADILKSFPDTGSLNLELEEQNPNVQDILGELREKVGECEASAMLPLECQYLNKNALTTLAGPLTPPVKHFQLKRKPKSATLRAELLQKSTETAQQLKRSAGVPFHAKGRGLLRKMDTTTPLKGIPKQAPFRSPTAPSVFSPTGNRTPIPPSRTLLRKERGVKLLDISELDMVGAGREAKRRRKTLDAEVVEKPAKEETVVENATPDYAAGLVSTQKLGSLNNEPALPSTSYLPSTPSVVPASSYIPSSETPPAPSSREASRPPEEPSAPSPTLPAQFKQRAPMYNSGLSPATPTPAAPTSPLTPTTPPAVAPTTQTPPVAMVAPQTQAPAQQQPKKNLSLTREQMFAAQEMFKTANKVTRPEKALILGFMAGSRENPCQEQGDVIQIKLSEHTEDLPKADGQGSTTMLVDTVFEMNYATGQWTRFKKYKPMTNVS
T1 sequence (Q8WX92 other isoform, or with tags, fused parts or gaps, chain 2 of 4): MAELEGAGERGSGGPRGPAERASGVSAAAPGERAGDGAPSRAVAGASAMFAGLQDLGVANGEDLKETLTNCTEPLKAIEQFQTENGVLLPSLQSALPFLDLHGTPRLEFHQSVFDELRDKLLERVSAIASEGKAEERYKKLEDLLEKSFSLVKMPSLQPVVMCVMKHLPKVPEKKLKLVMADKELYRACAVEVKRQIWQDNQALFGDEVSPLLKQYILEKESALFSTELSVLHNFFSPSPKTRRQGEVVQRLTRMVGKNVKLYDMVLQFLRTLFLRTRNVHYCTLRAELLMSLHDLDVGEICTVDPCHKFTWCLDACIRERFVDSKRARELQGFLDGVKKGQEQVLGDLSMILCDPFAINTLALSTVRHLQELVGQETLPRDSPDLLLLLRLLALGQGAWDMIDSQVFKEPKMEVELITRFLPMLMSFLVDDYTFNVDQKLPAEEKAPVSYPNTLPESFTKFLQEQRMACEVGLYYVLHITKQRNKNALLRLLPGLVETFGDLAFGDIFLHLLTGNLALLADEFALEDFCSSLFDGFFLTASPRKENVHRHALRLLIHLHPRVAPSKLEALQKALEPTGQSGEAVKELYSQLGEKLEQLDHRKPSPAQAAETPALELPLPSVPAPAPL
T1 sequence (Q8IXH7 whole entry, chain 3 of 4): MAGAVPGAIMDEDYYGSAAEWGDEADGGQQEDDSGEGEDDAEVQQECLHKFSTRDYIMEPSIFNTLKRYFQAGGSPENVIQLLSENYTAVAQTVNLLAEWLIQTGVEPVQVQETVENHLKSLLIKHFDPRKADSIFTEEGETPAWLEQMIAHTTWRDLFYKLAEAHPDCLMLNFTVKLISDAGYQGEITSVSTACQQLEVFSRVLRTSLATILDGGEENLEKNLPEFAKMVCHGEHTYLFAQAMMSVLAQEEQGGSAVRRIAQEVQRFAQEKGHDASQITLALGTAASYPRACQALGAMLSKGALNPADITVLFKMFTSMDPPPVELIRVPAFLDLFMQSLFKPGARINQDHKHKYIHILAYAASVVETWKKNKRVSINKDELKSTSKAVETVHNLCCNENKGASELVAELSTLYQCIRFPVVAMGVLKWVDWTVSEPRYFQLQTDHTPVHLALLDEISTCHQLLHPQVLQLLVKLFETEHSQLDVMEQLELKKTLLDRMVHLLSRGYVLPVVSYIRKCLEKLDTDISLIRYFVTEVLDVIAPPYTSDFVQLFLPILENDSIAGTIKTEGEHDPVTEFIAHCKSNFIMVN
T1 sequence (P18615 whole entry, chain 4 of 4): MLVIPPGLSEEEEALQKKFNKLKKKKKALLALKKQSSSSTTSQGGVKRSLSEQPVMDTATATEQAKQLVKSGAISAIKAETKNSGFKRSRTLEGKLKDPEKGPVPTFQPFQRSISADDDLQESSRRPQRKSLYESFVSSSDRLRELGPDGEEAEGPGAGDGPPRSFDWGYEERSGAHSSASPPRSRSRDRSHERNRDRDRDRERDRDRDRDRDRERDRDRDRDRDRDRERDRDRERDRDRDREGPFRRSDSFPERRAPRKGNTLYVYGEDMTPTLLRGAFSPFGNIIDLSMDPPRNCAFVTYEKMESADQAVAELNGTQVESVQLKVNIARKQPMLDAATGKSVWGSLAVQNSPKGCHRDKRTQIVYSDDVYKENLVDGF

NELF complex WT [2] = target: T1, NELF complex WT; assay: EMSA (NELF release from PEC); up to 2.4 µM; 20 mM Na-HEPES pH 7.4, 100 mM NaCl, 25 mM KCl, 3 mM MgCl2, 2 mM DTT; assembly 30 °C, eRNA incubation 15-20 min at room temperature; 3.5% native PAGE 0.5x TBE at 4 °C; PEC about 0.1 µM NELF 0.15 µM
NELF complex WT [3] = target: T1, NELF complex WT; assay: EMSA (NELF release from PEC); release at about equimolar eRNA; 20 mM Na-HEPES pH 7.4, 100 mM NaCl, 25 mM KCl, 3 mM MgCl2, 2 mM DTT; assembly 30 °C, eRNA incubation 15-20 min at room temperature; 3.5% native PAGE 0.5x TBE at 4 °C; PEC about 0.1 µM NELF 0.15 µM
NELF complex WT [4] = target: T1, NELF complex WT; assay: size-exclusion chromatography; UV crosslinking-MS (365 nm); isolated NELF; 20 mM Na-HEPES pH 7.4, 100 mM NaCl, 25 mM KCl, 3 mM MgCl2, 2 mM DTT; assembly 30 °C, eRNA incubation 15-20 min at room temperature; 3.5% native PAGE 0.5x TBE at 4 °C; PEC about 0.1 µM NELF 0.15 µM
NELF complex WT [5] = target: T1, NELF complex WT; assay: EMSA (NELF release from PEC); DSIF also released at high RNA; 20 mM Na-HEPES pH 7.4, 100 mM NaCl, 25 mM KCl, 3 mM MgCl2, 2 mM DTT; assembly 30 °C, eRNA incubation 15-20 min at room temperature; 3.5% native PAGE 0.5x TBE at 4 °C; PEC about 0.1 µM NELF 0.15 µM
NELF complex WT [6] = target: T1, NELF complex WT; assay: EMSA (NELF release from PEC); 18-fold molar excess; 20 mM Na-HEPES pH 7.4, 100 mM NaCl, 25 mM KCl, 3 mM MgCl2, 2 mM DTT; assembly 30 °C, eRNA incubation 15-20 min at room temperature; 3.5% native PAGE 0.5x TBE at 4 °C; PEC about 0.1 µM NELF 0.15 µM
NELF complex WT [7] = target: T1, NELF complex WT; assay: EMSA (NELF release from PEC); 20 mM Na-HEPES pH 7.4, 100 mM NaCl, 25 mM KCl, 3 mM MgCl2, 2 mM DTT; assembly 30 °C, eRNA incubation 15-20 min at room temperature; 3.5% native PAGE 0.5x TBE at 4 °C; PEC about 0.1 µM NELF 0.15 µM
NELF complex WT [8] = target: T1, NELF complex WT; assay: EMSA (NELF release from PEC); no DSIF release at high RNA; 20 mM Na-HEPES pH 7.4, 100 mM NaCl, 25 mM KCl, 3 mM MgCl2, 2 mM DTT; assembly 30 °C, eRNA incubation 15-20 min at room temperature; 3.5% native PAGE 0.5x TBE at 4 °C; PEC about 0.1 µM NELF 0.15 µM

B1: Nr4a1-(b) eRNA 1-100 (structured_RNA)
RNA: AGUAGGGGCAUGGCUCGCCCGAGGCUCGGUGCUGCCCCGCCGCCCGCCGCGUUCCUUCCGGCUUGGUGUUCCGGUGGCGGGACCAGGGAAGGGAAGCUCG
B1 was tested, and the Kd (NELF complex WT [1]) was 2.02 µM.

B2: poly(U) (ssRNA)
RNA: UUUUUUUUUUUUUUUUUUUUUUUUUUUUUUUUUUUUUUUUUUUUUUUUUUUUUUUUUUUUUUUUUUUUUUUUUUUUUUUU
B2: no binding (NELF complex WT [2]).

B3: Nr4a1-(a) eRNA 1-200 (structured_RNA)
RNA: GCGGUGAGAGUGAUUUUGUAACUCUAAAGUUACAGAGGGUUUUGUUGUGUUUUUAAUCAAGAGCCCUGGUUUUGAUUUGUGGGUAAUCUUUCUUUAAACCUCGCCCAUUUCCGGCCUGGUGACCUGGGCCACUUUCUCAUGUUGACCCAGAUGAUCCUCAGUAGCAAGAACAAAAGGACAACAGAUGUGGAAACACUCAA
B3: binds (NELF complex WT [3]).

B4: Nr4a1-(a) eRNA 1-200, 4SU (structured_RNA)
RNA: GCGGUGAGAGUGAUUUUGUAACUCUAAAGUUACAGAGGGUUUUGUUGUGUUUUUAAUCAAGAGCCCUGGUUUUGAUUUGUGGGUAAUCUUUCUUUAAACCUCGCCCAUUUCCGGCCUGGUGACCUGGGCCACUUUCUCAUGUUGACCCAGAUGAUCCUCAGUAGCAAGAACAAAAGGACAACAGAUGUGGAAACACUCAA
modifications: 4-thiouridine, <60% of U
B4: binds (NELF complex WT [4]).

B5: poly(UA) (ssRNA)
RNA: UAUAUAUAUAUAUAUAUAUAUAUAUAUAUAUAUAUAUAUAUAUAUAUAUAUAUAUAUAUAUAUAUAUAUAUAUAUAUAUAUAUAUAUAUAUAUAUA
B5: no binding (NELF complex WT [2]).

B6: poly(GU)40, 80 nt (ssRNA)
RNA: GUGUGUGUGUGUGUGUGUGUGUGUGUGUGUGUGUGUGUGUGUGUGUGUGUGUGUGUGUGUGUGUGUGUGUGUGUGUGUGU
B6: binds (NELF complex WT [5]).

B7: poly(GA)48, 96 nt (ssRNA)
RNA: GAGAGAGAGAGAGAGAGAGAGAGAGAGAGAGAGAGAGAGAGAGAGAGAGAGAGAGAGAGAGAGAGAGAGAGAGAGAGAGAGAGAGAGAGAGAGAGA
B7: binds (NELF complex WT [5]).

AAAACACAGCCGCCAGGGUGGGGGUGGCAGCCUUGAACGCCACCCUCUAA (structured_RNA) [Arc eRNA 1-50]: no binding (NELF complex WT [6]).

B8: poly(A) (ssRNA)
RNA: AAAAAAAAAAAAAAAAAAAAAAAAAAAAAAAAAAAAAAAAAAAAAAAAAAAAAAAAAAAAAAAAAAAAAAAAAAAAAAAA
B8: no binding (NELF complex WT [2]).

B9: poly(G2A), 96 nt (ssRNA)
RNA: GGAGGAGGAGGAGGAGGAGGAGGAGGAGGAGGAGGAGGAGGAGGAGGAGGAGGAGGAGGAGGAGGAGGAGGAGGAGGAGGAGGAGGAGGAGGAGGA
B9: binds (NELF complex WT [7]).

B10: Nr4a1-(a) eRNA 1-100 (structured_RNA)
RNA: GCGGUGAGAGUGAUUUUGUAACUCUAAAGUUACAGAGGGUUUUGUUGUGUUUUUAAUCAAGAGCCCUGGUUUUGAUUUGUGGGUAAUCUUUCUUUAAACC
With B10 the Kd (NELF complex WT [1]) was 0.14 µM.

B11: Nr4a1-(a) eRNA 1-100, 4SU (structured_RNA)
RNA: GCGGUGAGAGUGAUUUUGUAACUCUAAAGUUACAGAGGGUUUUGUUGUGUUUUUAAUCAAGAGCCCUGGUUUUGAUUUGUGGGUAAUCUUUCUUUAAACC
modifications: 4-thiouridine, 40-80% of U
B11: binds (NELF complex WT [4]).

B12: poly(CU) (ssRNA)
RNA: CUCUCUCUCUCUCUCUCUCUCUCUCUCUCUCUCUCUCUCUCUCUCUCUCUCUCUCUCUCUCUCUCUCUCUCUCUCUCUCU
B12: no binding (NELF complex WT [2]).

B13: Arc eRNA 1-200 (structured_RNA)
RNA: AAAACACAGCCGCCAGGGUGGGGGUGGCAGCCUUGAACGCCACCCUCUAACUGGCAUGGGCAUCUGAACUCUCAGCUCUGGGGGUGUCUCAUCGGCCAGCUGGCAGUAGCCCCCCCAACCCCACCCCUGAUGGAGAACUGCUCCUGUAUGAUCCAGCCCAGUGGGCGCACAGGGAGUUGGUAGGUGGGCACUCAGACUGG
B13: binds (NELF complex WT [3]).

B14: Arc eRNA 1-200, 4SU (structured_RNA)
RNA: AAAACACAGCCGCCAGGGUGGGGGUGGCAGCCUUGAACGCCACCCUCUAACUGGCAUGGGCAUCUGAACUCUCAGCUCUGGGGGUGUCUCAUCGGCCAGCUGGCAGUAGCCCCCCCAACCCCACCCCUGAUGGAGAACUGCUCCUGUAUGAUCCAGCCCAGUGGGCGCACAGGGAGUUGGUAGGUGGGCACUCAGACUGG
modifications: 4-thiouridine, 40-80% of U
B14: binds (NELF complex WT [4]).

B15: poly(G2A6), 96 nt (ssRNA)
RNA: GGAAAAAAGGAAAAAAGGAAAAAAGGAAAAAAGGAAAAAAGGAAAAAAGGAAAAAAGGAAAAAAGGAAAAAAGGAAAAAAGGAAAAAAGGAAAAAA
B15: binds (NELF complex WT [8]).

B16: Nr4a1-(b) eRNA 1-200 (structured_RNA)
RNA: AGUAGGGGCAUGGCUCGCCCGAGGCUCGGUGCUGCCCCGCCGCCCGCCGCGUUCCUUCCGGCUUGGUGUUCCGGUGGCGGGACCAGGGAAGGGAAGCUCGGGCCAAAUCCGGUCUCGGGCGAGGUGACAGAAAUUUGGAAUCUGACACCGGAGGAUGGCUGAGCUCCGGCUCCUCUGGGAGUGCAAUUACGGACUUCGCA
B16: binds (NELF complex WT [3]).

AGUAGGGGCAUGGCUCGCCCGAGGCUCGGUGCUGCCCCGCCGCCCGCCGC (structured_RNA) [Nr4a1-(b) eRNA 1-50]: no binding (NELF complex WT [6]).

GCGGUGAGAGUGAUUUUGUAACUCUAAAGUUACAGAGGGUUUUGUUGUGU (ssRNA) [Nr4a1-(a) eRNA 1-50] gave a Kd (NELF complex WT [1]) of 9.7 µM.

B17: poly(CA) (ssRNA)
RNA: CACACACACACACACACACACACACACACACACACACACACACACACACACACACACACACACACACACACACACACACACACACACACACACACA
B17: no binding (NELF complex WT [2]).

B18: Arc eRNA 96-200 (structured_RNA)
RNA: CCAGCUGGCAGUAGCCCCCCCAACCCCACCCCUGAUGGAGAACUGCUCCUGUAUGAUCCAGCCCAGUGGGCGCACAGGGAGUUGGUAGGUGGGCACUCAGACUGG
B18: binds (NELF complex WT [7]).
